{"source": "paper PMC12664034", "about": "“The E3 ubiquitin ligase SPRYD3-MYCBP2(PAM) regulates mitotic cell fate and ubiquitination of USP11 to control spindle assembly” (The Journal of Biological Chemistry, 2025)", "molecular_target": "T1, GST-USP11 (UniProt P51784 1-963)", "T1 construct": "USP11; pGEX4T1-GST-USP11; made by subcloning; the bought USP11 plasmid is Addgene 22566; also called recombinant USP11; source: E. coli Rosetta (DE3), purified (Glutathione Sepharose 4B)", "T1 sequence (P51784 whole entry)": "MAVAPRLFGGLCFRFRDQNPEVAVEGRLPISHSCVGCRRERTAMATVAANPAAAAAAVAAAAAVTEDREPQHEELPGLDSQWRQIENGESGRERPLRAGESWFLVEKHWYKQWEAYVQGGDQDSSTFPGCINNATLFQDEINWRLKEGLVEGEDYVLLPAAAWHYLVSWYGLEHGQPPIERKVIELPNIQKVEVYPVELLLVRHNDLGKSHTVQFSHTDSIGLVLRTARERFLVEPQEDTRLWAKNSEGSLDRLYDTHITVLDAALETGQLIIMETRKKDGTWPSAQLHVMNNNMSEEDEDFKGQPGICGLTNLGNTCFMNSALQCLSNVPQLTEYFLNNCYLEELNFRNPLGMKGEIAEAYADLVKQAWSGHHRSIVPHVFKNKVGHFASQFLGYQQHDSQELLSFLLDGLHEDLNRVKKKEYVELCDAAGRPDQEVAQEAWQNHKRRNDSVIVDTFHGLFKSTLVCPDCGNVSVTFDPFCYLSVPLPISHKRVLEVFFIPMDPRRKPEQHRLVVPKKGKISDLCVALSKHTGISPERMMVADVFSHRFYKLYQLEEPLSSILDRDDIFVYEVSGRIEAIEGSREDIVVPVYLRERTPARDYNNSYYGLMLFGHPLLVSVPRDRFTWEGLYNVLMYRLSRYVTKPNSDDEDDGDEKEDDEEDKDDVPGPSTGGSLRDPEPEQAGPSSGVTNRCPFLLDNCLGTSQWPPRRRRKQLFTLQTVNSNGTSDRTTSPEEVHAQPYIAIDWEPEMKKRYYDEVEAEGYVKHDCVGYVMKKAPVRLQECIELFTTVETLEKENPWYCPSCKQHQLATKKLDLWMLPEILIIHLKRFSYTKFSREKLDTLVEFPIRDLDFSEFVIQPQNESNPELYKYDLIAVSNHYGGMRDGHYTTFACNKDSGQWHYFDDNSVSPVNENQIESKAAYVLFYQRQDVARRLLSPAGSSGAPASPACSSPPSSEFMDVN", "test": "pull-down; MBP pull-down: 10 μg MBP-SPRYD3 (or equimolar MBP) mixed with 10 μg GST-tagged protein in NP-40 buffer, 4 °C 1 h; Amylose resin 2 h at 4 °C; five washes; Western blot", "details": "both partners purified", "data": [{"binder": "MBP-SPRYD3 (natural protein, UniProt Q8NCJ5 1-442, looked up, SPRYD3; pMal-c2-MBP-SPRYD3; also called recombinant SPRYD3; source: E. coli Rosetta (DE3), purified (Amylose resin)) MRRTRRPRFVLMNKMDDLNLHYRFLNWRRRIREIREVRAFRYQERFKHILVDGDTLSYHGNSGEVGCYVASRPLTKDSNYFEVSIVDSGVRGTIAVGLVPQYYSLDHQPGWLPDSVAYHADDGKLYNGRAKGRQFGSKCNSGDRIGCGIEPVSFDVQTAQIFFTKNGKRVGSTIMPMSPDGLFPAVGMHSLGEEVRLHLNAELGREDDSVMMVDSYEDEWGRLHDVRVCGTLLEYLGKGKSIVDVGLAQARHPLSTRSHYFEVEIVDPGEKCYIALGLARKDYPKNRHPGWSRGSVAYHADDGKIFHGSGVGDPFGPRCYKGDIMGCGIMFPRDYILDSEGDSDDSCDTVILSPTARAVRNVRNVMYLHQEGEEEEEEEEEEEDGEEIEPEHEGRKVVVFFTRNGKIIGKKDAVVPSGGFFPTIGMLSCGEKVKVDLHPLSG", "values": [{"measurement": "binding result", "result": "binds"}]}]}
